Assay results as given in paper PMC4253670 (Biochemical and biophysical research communications, 2014).
“Also recorded” adds a separate entry of the source. Where no end group is shown, it is not given here.

What was measured:
[1] = target: T1, MPO (Homo sapiens, UniProt P05164); experiment: Direct binding ELISA of HPLC-purified peptides; conditions: 24-mer P18, 21-mers of P18, P48, P76, negative controls P28 and P61, mean ± SEM, n = 4 wells, p<0.05, figure 3B
[2] = target: T1, MPO; experiment: Peptide screening, direct binding ELISA of 87 overlapping Cp peptides; conditions: combined data of 87 ELISA plates; 24-mers not HPLC-purified; figure 2A
[3] = target: T1, MPO; experiment: Surface plasmon resonance, immobilized MPO; conditions: read-out: binding affinity (Kd); MPO immobilized on CM5 chip via -NH2; Cp 1 to 200 nM; Biacore3000, 30 μl/min; Biaevaluation software
[4] = tested on: Cp; conditions: oxidation of ferrous ions and removal of peroxides; ref [14]; cited from earlier work
[5] = tested on: MPO; conditions: ref [14]; cited from earlier work

T1 sequence (P05164 279-745 limits assumed): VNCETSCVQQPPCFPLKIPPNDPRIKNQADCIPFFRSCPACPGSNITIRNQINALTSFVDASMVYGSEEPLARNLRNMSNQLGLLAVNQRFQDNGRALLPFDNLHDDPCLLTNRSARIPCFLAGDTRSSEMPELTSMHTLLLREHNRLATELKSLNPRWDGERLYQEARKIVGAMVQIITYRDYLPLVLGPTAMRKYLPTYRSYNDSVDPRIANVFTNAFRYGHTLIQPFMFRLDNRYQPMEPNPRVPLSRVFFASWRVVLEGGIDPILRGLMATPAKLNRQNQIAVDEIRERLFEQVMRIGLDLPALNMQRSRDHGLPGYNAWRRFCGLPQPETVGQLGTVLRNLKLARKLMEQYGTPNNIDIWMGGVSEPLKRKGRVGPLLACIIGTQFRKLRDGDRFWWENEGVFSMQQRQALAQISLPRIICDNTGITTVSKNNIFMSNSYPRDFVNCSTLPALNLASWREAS
T1 sequence (P05164 165-273 limits assumed): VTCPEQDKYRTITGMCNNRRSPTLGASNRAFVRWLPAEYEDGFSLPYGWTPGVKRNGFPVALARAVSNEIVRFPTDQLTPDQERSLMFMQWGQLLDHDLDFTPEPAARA

Molecule | binding of MPO to HPLC-purified surface-adsorbed peptide [1] | peptide-MPO to Cp-MPO absorbance ratio [2] | Kd [3] [nM] | effect of MPO binding on antioxidant activities of Cp [4] | binding to and inhibition of myeloperoxidase [5]
VVDENFSWYLEDNIKTYCSEPEKV [P18] | bound more MPO than its shorter, 21-mer version; also recorded: bound more MPO than P76 | two major peaks | – | – | –
Cp: Purified human Cp (Vital Products), copper-containing ferroxidase (protein) KEKHYYIGIIETTWDYASDHGEKKLISVDTEHSNIYLQNGPDRIGRLYKKALYLQYTDETFRTTIEKPVWLGFLGPIIKAETGDKVYVHLKNLASRPYTFHSHGITYYKEHEGAIYPDNTTDFQRADDKVYPGEQYTYMLLATEEQSPGEGDGNCVTRIYHSHIDAPKDIASGLIGPLIICKKDSLDKEKEKHIDREFVVMFSVVDENFSWYLEDNIKTYCSEPEKVDKDNEDFQESNRMYSVNGYTFGSLPGLSMCAEDRVKWYLFGMGNEVDVHAAFFHGQALTNKNYRIDTINLFPATLFDAYMVAQNPGEWMLSCQNLNHLKAGLQAFFQVQECNKSSSKDNIRGKHVRHYYIAAEEIIWNYAPSGIDIFTKENLTAPGSDSAVFFEQGTTRIGGSYKKLVYREYTDASFTNRKERGPEEEHLGILGPVIWAEVGDTIRVTFHNKGAYPLSIEPIGVRFNKNNEGTYYSPNYNPQSRSVPPSASHVAPTETFTYEWTVPKEVGPTNADPVCLAKMYYSAVEPTKDIFTGLIGPMKICKKGSLHANGRQKDVDKEFYLFPTVFDENESLLLEDNIRMFTTAPDQVDKEDEDFQESNKMHSMNGFMYGNQPGLTMCKGDSVVWYLFSAGNEADVHGIYFSGNTYLWRGERRDTANLFPQTSLTLHMWPDTEGTFNVECLTTDHYTGGMKQKYTVNQCRRQSEDSTFYLGERTYYIAAVEVEWDYSPQREWEKELHHLQEQNVSNAFLDKGEFYIGSKYKKVVYRQYTDSTFRVPVERKAEEEHLGILGPQLHADVGDKVKIIFKNMATRPYSIHAHGVQTESSTVTPTLPGETLTYVWKIPERSGAGTEDSACIPWAYYSTVDQVKDLYSGLIGPLIVCRRPYLKVFNPRRKLEFALLFLVFDENESWYLDDNIKTYSDHPEKVNKDDEEFIESNKMHAINGRMFGNLQGLTMHVGDEVNWYLMGMGNEIDLHTVHFHGHSFQYKHRGVYSSDVFDIFPGTYQTLEMFPRTPGIWLLHCHVTDHIHAGMETTYTVLQNEDTKSG | – | – | 30 | does not inhibit important antioxidant activities of Cp | bind and inhibit myeloperoxidase (MPO)
